Where “and” joins values, the source holds several entries; their conditions need not be identical. Equal entries are not always repeated.
B1: slPvdD2: mBpsA with T-domain from second module of pvdD of P. aeruginosa PAO1; SEQ ID NO: 7 (protein)
chain: MTLQETSVLEPTLQGTTTLPGLLAQRVAEHPEAIAVAYRDDKLTFRELASRSAALADYLEHLGVSADDCVGLFVEPSIDLMVGAWGILNAGAAYLPLSPEYPEDRLRYMIENSETKIILAQQRLVSRLRELAPKDVTIVTLRESEAFVRPEGTEAPAARSARPDTLAYVIYTSGSTGKPKGVMIEHRSIVNQLGWLRETYAIDRSKVILQKTPMSFDAAQWEILSPANGATVVMGAPGVYADPEGLIETIVKHNVTTLQCVPTLLQGLIDTEKFPECVSLQQIFSGGEALSRLLAIQTTQEMPGRALINVYGPTETTINSSSFPVDPADLDEGPQSISIGSPVHGTTYHILDKETLKPVGVGEIGELYIGGIQLARGYLHRDDLTAERFLEIELEEGAEPVRLYKTGDLGQWNNDGTVQFAGRADNQVKLRGYRVELDEISLAIENHDWVRNAAVIVKNDGRTGFQNLIACIELSEKEAALMDQGNHGSHHASKKSKLQVKAQLSNPGLRDDAELAARPAFDLEGAEPTPEQRARVFARKTYRFYEGGAVTQADLLGLLGATVTAGYSRKAADLAPAELGQILRWFGQYISEERLLPKYGYASPGALYATQMYFELEGVGGLKPGYYYYQPVRHQLVLISEREATGKATAQIHFIGKKSGIEPVYKNNILEVLEIETGHMVGLFEQILPAYGLDIHDRAYEPAVKDLLDVADEDYYLGTFELVPHAGARDDQAEVYVQTHGGKVAGLPEGQYRYENGELTRFSDDIVLKKHVIAINQSVYQAASFGISVYSRAEEEWLKYITLGKKLQHLMMNGLNLGFMSSGYSSKTGNPLPASRRMDAVLGANGVDSAPMYFFVGGRISDEQIGHEGMREDSVHMRGPAELIRDDLVSFLPDYMIPNRVVVFDRLPLSANGKIDVKALAASDQVNAELVERPYRAPGSELEQRIAAIWAEILGVERVGLDDNFFELGGHSLLLLMLKERIGDTCQATLSISQLMTHASVAEQAACIEREVAQESSRFVRLHAETGKARPVICWPGLGGYPMNLRSLAGEIGLGRSFYGVQSYGINEGETPYETITEMAKKDIEALKEIQPAGPYTLWGYSFGARVAFETAYQLEQAGEKVDNLFLIAPGSPKVRAENGKVWGREASFANRGYTTILFSVFTGTISGPDLDRCLETVTDEASFAEFISELKGIDVDLARRIISVVGQTYEFEYSFHELAERTLQAPISIFKAVGDDYSFLENSSGYSAEPPTVIDLDADHYSLLREDIGELVKHIRYLLGE
B2: slPsT1: mBpsA with T-domain from pspph1926 gene of P. syringae 1448a; SEQ ID NO: 9 (protein)
chain: MTLQETSVLEPTLQGTTTLPGLLAQRVAEHPEAIAVAYRDDKLTFRELASRSAALADYLEHLGVSADDCVGLFVEPSIDLMVGAWGILNAGAAYLPLSPEYPEDRLRYMIENSETKIILAQQRLVSRLRELAPKDVTIVTLRESEAFVRPEGTEAPAARSARPDTLAYVIYTSGSTGKPKGVMIEHRSIVNQLGWLRETYAIDRSKVILQKTPMSFDAAQWEILSPANGATVVMGAPGVYADPEGLIETIVKHNVTTLQCVPTLLQGLIDTEKFPECVSLQQIFSGGEALSRLLAIQTTQEMPGRALINVYGPTETTINSSSFPVDPADLDEGPQSISIGSPVHGTTYHILDKETLKPVGVGEIGELYIGGIQLARGYLHRDDLTAERFLEIELEEGAEPVRLYKTGDLGQWNNDGTVQFAGRADNQVKLRGYRVELDEISLAIENHDWVRNAAVIVKNDGRTGFQNLIACIELSEKEAALMDQGNHGSHHASKKSKLQVKAQLSNPGLRDDAELAARPAFDLEGAEPTPEQRARVFARKTYRFYEGGAVTQADLLGLLGATVTAGYSRKAADLAPAELGQILRWFGQYISEERLLPKYGYASPGALYATQMYFELEGVGGLKPGYYYYQPVRHQLVLISEREATGKATAQIHFIGKKSGIEPVYKNNILEVLEIETGHMVGLFEQILPAYGLDIHDRAYEPAVKDLLDVADEDYYLGTFELVPHAGARDDQAEVYVQTHGGKVAGLPEGQYRYENGELTRFSDDIVLKKHVIAINQSVYQAASFGISVYSRAEEEWLKYITLGKKLQHLMMNGLNLGFMSSGYSSKTGNPLPASRRMDAVLGANGVDSAPMYFFVGGRISDEQIGHEGMREDSVHMRGPAELIRDDLVSFLPDYMIPNRVVVFDRLPLSANGKIDVKALAASDQVNAELVERPHVAPRTEFEQRLAALWEQVLQVERVGLNDNFFALGGHSLLAVSLAGRIRETFDVSIKLHDFLLMQTLGELADFMRREVAQESSRFVRLHAETGKARPVICWPGLGGYPMNLRSLAGEIGLGRSFYGVQSYGINEGETPYETITEMAKKDIEALKEIQPAGPYTLWGYSFGARVAFETAYQLEQAGEKVDNLFLIAPGSPKVRAENGKVWGREASFANRGYTTILFSVFTGTISGPDLDRCLETVTDEASFAEFISELKGIDVDLARRIISVVGQTYEFEYSFHELAERTLQAPISIFKAVGDDYSFLENSSGYSAEPPTVIDLDADHYSLLREDIGELVKHIRYLLGE
B3: slEntF: mBpsA with T-domain from entF gene of E. coli W3110; SEQ ID NO: 11 (protein)
chain: MTLQETSVLEPTLQGTTTLPGLLAQRVAEHPEAIAVAYRDDKLTFRELASRSAALADYLEHLGVSADDCVGLFVEPSIDLMVGAWGILNAGAAYLPLSPEYPEDRLRYMIENSETKIILAQQRLVSRLRELAPKDVTIVTLRESEAFVRPEGTEAPAARSARPDTLAYVIYTSGSTGKPKGVMIEHRSIVNQLGWLRETYAIDRSKVILQKTPMSFDAAQWEILSPANGATVVMGAPGVYADPEGLIETIVKHNVTTLQCVPTLLQGLIDTEKFPECVSLQQIFSGGEALSRLLAIQTTQEMPGRALINVYGPTETTINSSSFPVDPADLDEGPQSISIGSPVHGTTYHILDKETLKPVGVGEIGELYIGGIQLARGYLHRDDLTAERFLEIELEEGAEPVRLYKTGDLGQWNNDGTVQFAGRADNQVKLRGYRVELDEISLAIENHDWVRNAAVIVKNDGRTGFQNLIACIELSEKEAALMDQGNHGSHHASKKSKLQVKAQLSNPGLRDDAELAARPAFDLEGAEPTPEQRARVFARKTYRFYEGGAVTQADLLGLLGATVTAGYSRKAADLAPAELGQILRWFGQYISEERLLPKYGYASPGALYATQMYFELEGVGGLKPGYYYYQPVRHQLVLISEREATGKATAQIHFIGKKSGIEPVYKNNILEVLEIETGHMVGLFEQILPAYGLDIHDRAYEPAVKDLLDVADEDYYLGTFELVPHAGARDDQAEVYVQTHGGKVAGLPEGQYRYENGELTRFSDDIVLKKHVIAINQSVYQAASFGISVYSRAEEEWLKYITLGKKLQHLMMNGLNLGFMSSGYSSKTGNPLPASRRMDAVLGANGVDSAPMYFFVGGRISDEQIGHEGMREDSVHMRGPAELIRDDLVSFLPDYMIPNRVVVFDRLPLSANGKIDVKALAASDQVNAELVERPGRAPKAGSETIIAAAFSSLLGCDVQDADADFFALGGHSLLAMKLAAQLSRQVARQVTPGQVMVASTVAKLATIIDREVAQESSRFVRLHAETGKARPVICWPGLGGYPMNLRSLAGEIGLGRSFYGVQSYGINEGETPYETITEMAKKDIEALKEIQPAGPYTLWGYSFGARVAFETAYQLEQAGEKVDNLFLIAPGSPKVRAENGKVWGREASFANRGYTTILFSVFTGTISGPDLDRCLETVTDEASFAEFISELKGIDVDLARRIISVVGQTYEFEYSFHELAERTLQAPISIFKAVGDDYSFLENSSGYSAEPPTVIDLDADHYSLLREDIGELVKHIRYLLGE

Key:
[1] = system: BpsA, single module non-ribosomal peptide synthetase of Streptomyces lavendulae ATCC 11924, purified recombinant 6His-tagged protein (apo form)
[2] = system: wild type BpsA reporter expressed in E. coli BL21(DE3) from a pCDFDuet-based plasmid (slBPSA)
[3] = system: E. coli harbouring an activating PPTase; test: In vivo pigment synthesis activity of BpsA derivatives relative to wild type BpsA; assay type: cell-based; settings: E. coli, supernatant A590
Excerpt: A detailed description of the method used for generation of mBpsA derivatives is given in Section 4.15. Briefly, a plasmid containing bpsA lacking its native T-domain (pBPSA3) was created. This plasmid contained restriction enzyme sites which were subsequently used to introduce foreign T-domain sequence. Foreign T-domains were then amplified from the chromosomal DNA of their host organisms and introduced into pBPSA3 to generate mBpsA derivatives which contained T-domains from foreign NRPS proteins in place of the native T-domain. Only the final embodiment of the T-domain swapping platform is described in this application. This embodiment is the result of rational in-silico design as well as trial and error, which are not described. Using this final platform, five different mBpsA derivatives were generated and subsequently assessed for in vivo pigment synthesis capacity in E. coli harbouring an activating PPTase. Table 3.1 gives a summary of the mBpsA derivatives generated as well as their in vivo pigment synthesis activities relative to wild type BpsA. The derivation of in vivo pigment synthesis activity was as described in 4.10.
For second tier screening, up to 45 improved clones, along with a positive and negative control, were stored as duplicate glycerol stocks in a 96wp. From this plate duplicate overnight cultures were established in LB supplemented with 0.4% glucose and appropriate antibiotics. […] Overnight cultures were grown for 16-20 h (37° C. 200 rpm) before transfer of 20 μl of each culture into a fresh well containing 130 μL LB supplemented with 115 mM L-Gln, 0.6 mM IPTG and appropriate antibiotics. Assay plates set up in this fashion contained duplicate cultures for each clone from two separate overnights. Assay plates were then wrapped in foil and incubated for 6-24 h (18° C., 200 rpm), depending on activity of improved clones. After incubation cells were collected at the corner of each well by centrifugation and OD 590 values determined using a microplate reader. Assays were repeated at least twice before determination of clones for sequence analysis.
In vivo pigment synthesis efficiencies for recombinant BpsA proteins described in Section 3.2 were derived from three separate assays. This was necessary due to the fact that pigment synthesis of wild type BpsA saturate before activity of mBpsA derivatives was detectable. Replicate cultures for determination of in vivo pigment synthesis activity were established from overnight starter cultures in a 96 wp as described in Section 4.9.3 The values presented are derived as follows: quadruplicate values for WT BpsA and oBpsA (mutant with reduced activity) were determined after 3 h, at which point pigment production was not saturated for WT. A separate quadruplicate assay was then run to obtain a value for slEntF by comparison to oBpsA after 12 h. Quadruplicate values for slPsT and slPvdD2 were then obtained in a separate assay by comparison to slEntF after 12 h.

Molecule | Km (BpsA as variable substrate), BpsA coupled indigoidine assay [1] [µM] | kcat (BpsA as variable substrate), BpsA coupled indigoidine assay [1] [s⁻¹] | kcat/Km (BpsA as variable substrate), BpsA coupled indigoidine assay [1] [M⁻¹ s⁻¹] | production of indigoidine on co-expression in E. coli BL21(DE3) [2] | Relative activity (in vivo pigment synthesis relative to wild type BpsA) [3]
Sfp, phosphopantetheinyl transferase of Bacillus subtilis subsp. spizizenii ATCC6633 | 3.3 | 0.0357 | 10800 | co-expression of BpsA with any of the three PPTases selected (Sfp, PcpS and PP1183) resulted in substantial production of indigoidine | –
PP1183, putative phosphopantetheinyl transferase of Pseudomonas putida KT2440 | 8.6 | 0.185 | 21500 | co-expression of BpsA with any of the three PPTases selected (Sfp, PcpS and PP1183) resulted in substantial production of indigoidine | –
B1 | – | – | – | – | ~5%
B2 | – | – | – | – | ~5%
B3 | – | – | – | – | 5.14% and 5.14 +/− 0.28%

From patent publication US20130260436A1, “Methods of Identifying and Characterizing Natural Product Gene Clusters” (Victoria LInk Limited, priority 2010, published 2013)
